System: gluten (wheat allergen)
Test: SPR
Details: 20-mer poly(dA) added at 5' end for SPR immobilization; 40 mM HEPES pH 7.5, 125 mM NaCl, 5 mM KCl, 1 mM MgCl2, 0.01% Tween 20; aptamer immobilized via poly(dA)/biotin-poly(dT)

Sequence | Kd
GAGGTTGGGTGGGGGAGG [Aptamer 2] | 18.6 nM
GAGGTTGGGTGGGGGAGGCAGCATGCGGGA [Aptamer 1] | 14.5 nM

Source: patent publication US20200248181
